{"source": "paper PMC8560813", "key": {"[1]": {"biological_target": "heme (acquired from hemoglobin resin)", "experiment": "visible spectroscopy after incubation with hemoglobin resin", "conditions": "mean difference before and after incubation with beads, three independent experiments; parent: est. 0.40; read off a plot"}, "[2]": {"biological_target": "bovine holo hemoglobin, P01966;P02070", "experiment": "pull-down (hemoglobin resin, anti-His Western, band intensity quantified)", "conditions": "three independent pull-down experiments; parent: est. 7.5; read off a plot"}}}
{"substance": "apo HphA (hemophilin), N-terminal 6X His tagged, heme stripped by acid-acetone extraction (from UniProt A0A059ZRB8) H43A; H106A", "values": [{"measurement": "response", "setting": "[1]", "result": "0.03 ΔAbsorbance"}, {"measurement": "response", "setting": "[2]", "result": "1.5 % of Input"}]}
